Biological target: MORC2 (UniProt Q9Y6X9)
Assay: co-IP of Flag-rPGK1, immunoblot
Conditions: reference: WT Flag-rPGK1; sites S256

binding against the reference: lost
Substance: PGK1 (from UniProt P00558) Flag-rPGK1 S256A
